Reference: the supplement of paper PMC10065799, “High-throughput profiling of sequence recognition by tyrosine kinases and SH2 domains using bacterial peptide display” (eLife, 2023)

Columns and labels:
c-Src SH2 = experiment: SH2 binding enrichment of the phosphorylated peptide, bacterial display (enrichment ratio); higher = better substrate or ligand; peptides without Tyr show the background
Grb2 SH2 = Grb2 SH2 (UniProt P62993); experiment: as above
SHP2-C SH2 = experiment: as above
MERTK = MERTK (UniProt Q12866); experiment: phosphorylation enrichment, bacterial display (enrichment ratio); higher = better substrate or ligand; peptides without Tyr show the background
Fer (mouse) = experiment: as above
c-Abl (mouse) = experiment: as above
c-Src = experiment: as above
FGFR1 = FGFR1 (UniProt P11362); experiment: as above
EPHB1 = EPHB1 (UniProt P54762); experiment: as above
Fyn = Fyn (UniProt P06241); experiment: as above
Hck = Hck (UniProt P08631); experiment: as above
EPHB2 = EPHB2 (UniProt P29323); experiment: as above
AncSZ = experiment: as above
Fes = Fes (UniProt P07332); experiment: as above
FGFR3 = FGFR3 (UniProt P22607); experiment: as above
Jak2 = Jak2 (UniProt O60674); experiment: as above
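Wherever SH2 binding enrichment of the phosphorylated peptide, bacterial display is given: peptide library displayed on the E. coli surface as eCPX fusions, selected cells deep-sequenced, score is each peptide's frequency after selection divided by its frequency in the input.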
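Wherever phosphorylation enrichment, bacterial display is given: 11-residue human phosphosite peptides and single-mutation variants displayed on the E. coli surface, counted by deep sequencing, each peptide's frequency after selection divided by its frequency in the unselected input library; frequency after pTyr selection over input frequency; kinase dosed for 20-30% of maximal phosphorylation in three min.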

Chain of EPHB2 (P29323 whole entry, looked up): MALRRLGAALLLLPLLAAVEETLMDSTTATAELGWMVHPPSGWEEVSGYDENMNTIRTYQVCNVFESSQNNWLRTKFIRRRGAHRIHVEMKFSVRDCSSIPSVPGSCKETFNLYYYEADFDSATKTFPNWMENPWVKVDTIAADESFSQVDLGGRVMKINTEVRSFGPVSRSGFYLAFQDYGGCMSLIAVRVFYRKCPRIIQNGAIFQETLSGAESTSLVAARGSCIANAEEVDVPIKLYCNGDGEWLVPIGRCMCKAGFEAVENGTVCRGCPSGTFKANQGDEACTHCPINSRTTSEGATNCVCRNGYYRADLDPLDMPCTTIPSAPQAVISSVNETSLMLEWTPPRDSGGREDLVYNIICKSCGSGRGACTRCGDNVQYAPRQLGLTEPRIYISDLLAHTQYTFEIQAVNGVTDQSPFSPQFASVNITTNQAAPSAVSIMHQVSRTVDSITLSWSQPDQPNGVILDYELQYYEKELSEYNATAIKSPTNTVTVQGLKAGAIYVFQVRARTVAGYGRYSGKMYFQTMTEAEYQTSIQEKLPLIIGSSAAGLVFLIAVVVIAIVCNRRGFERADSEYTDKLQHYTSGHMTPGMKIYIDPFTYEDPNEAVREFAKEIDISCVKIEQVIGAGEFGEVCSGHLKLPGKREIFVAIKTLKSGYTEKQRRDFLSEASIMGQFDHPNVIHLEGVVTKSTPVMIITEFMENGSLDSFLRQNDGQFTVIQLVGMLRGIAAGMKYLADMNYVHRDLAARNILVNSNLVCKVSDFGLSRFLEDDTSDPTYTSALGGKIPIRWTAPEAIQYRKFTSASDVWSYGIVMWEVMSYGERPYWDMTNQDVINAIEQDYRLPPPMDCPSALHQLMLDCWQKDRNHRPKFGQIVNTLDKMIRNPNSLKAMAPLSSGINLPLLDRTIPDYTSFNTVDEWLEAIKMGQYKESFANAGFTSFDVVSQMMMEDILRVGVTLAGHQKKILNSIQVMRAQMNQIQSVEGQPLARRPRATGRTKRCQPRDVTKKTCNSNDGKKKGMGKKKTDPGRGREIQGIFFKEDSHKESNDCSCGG
Chain of FGFR3 (P22607 whole entry, looked up): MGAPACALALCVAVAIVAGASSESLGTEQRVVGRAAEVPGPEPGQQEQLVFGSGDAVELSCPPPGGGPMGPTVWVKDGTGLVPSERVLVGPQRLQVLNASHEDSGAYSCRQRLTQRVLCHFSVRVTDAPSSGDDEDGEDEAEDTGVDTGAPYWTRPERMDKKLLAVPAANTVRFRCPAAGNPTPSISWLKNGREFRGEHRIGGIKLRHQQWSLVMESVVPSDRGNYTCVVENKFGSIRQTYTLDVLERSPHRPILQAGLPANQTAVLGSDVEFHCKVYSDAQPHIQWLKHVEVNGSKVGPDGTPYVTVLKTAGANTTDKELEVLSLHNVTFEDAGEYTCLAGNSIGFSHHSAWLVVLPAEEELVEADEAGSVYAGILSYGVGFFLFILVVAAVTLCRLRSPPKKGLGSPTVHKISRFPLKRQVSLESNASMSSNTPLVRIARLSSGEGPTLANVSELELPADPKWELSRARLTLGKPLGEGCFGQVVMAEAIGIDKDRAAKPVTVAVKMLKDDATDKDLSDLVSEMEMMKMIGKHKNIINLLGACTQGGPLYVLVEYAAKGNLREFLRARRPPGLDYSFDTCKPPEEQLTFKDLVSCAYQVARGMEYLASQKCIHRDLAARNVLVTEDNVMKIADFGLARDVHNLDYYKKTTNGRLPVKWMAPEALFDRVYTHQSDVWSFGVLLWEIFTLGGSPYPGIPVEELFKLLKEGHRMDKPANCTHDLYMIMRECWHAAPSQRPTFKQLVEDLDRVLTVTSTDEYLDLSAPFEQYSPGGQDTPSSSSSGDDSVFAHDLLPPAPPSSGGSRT
Chain of Fyn (P06241 whole entry, looked up): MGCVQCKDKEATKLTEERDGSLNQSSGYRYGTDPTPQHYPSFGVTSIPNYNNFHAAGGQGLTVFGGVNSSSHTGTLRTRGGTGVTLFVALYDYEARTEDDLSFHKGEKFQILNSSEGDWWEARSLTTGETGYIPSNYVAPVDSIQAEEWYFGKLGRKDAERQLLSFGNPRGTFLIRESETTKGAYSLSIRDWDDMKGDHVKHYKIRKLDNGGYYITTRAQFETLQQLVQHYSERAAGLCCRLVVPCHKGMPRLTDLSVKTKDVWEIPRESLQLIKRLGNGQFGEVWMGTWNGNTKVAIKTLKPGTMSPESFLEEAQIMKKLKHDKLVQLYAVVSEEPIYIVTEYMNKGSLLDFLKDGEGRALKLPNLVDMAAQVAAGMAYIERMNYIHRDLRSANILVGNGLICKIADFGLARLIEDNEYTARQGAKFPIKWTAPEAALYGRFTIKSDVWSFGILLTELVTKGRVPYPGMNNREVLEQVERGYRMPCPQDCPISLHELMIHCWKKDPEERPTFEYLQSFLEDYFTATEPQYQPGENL
Chain of Fes (P07332 whole entry, looked up): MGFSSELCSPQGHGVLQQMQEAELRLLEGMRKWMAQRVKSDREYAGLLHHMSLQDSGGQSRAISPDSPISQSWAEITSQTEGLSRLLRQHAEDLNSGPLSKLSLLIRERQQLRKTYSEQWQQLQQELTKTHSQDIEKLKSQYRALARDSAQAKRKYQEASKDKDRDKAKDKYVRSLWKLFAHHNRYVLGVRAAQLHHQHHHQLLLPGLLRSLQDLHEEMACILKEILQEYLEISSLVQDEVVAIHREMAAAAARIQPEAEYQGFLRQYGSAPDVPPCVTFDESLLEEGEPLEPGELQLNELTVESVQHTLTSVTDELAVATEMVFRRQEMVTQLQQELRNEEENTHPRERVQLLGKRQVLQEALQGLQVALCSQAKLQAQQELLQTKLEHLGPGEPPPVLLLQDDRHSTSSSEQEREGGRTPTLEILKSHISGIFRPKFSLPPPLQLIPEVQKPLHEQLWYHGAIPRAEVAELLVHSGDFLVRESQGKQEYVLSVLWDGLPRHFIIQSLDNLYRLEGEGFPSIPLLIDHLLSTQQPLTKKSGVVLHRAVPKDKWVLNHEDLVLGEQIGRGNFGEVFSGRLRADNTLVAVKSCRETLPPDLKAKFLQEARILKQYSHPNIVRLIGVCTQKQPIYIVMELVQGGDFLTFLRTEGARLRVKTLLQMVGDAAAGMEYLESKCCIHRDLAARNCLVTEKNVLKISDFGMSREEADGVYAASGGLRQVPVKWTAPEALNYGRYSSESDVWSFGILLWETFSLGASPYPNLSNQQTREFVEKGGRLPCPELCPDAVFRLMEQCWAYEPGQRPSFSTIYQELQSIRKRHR
Chain of Jak2 (O60674 whole entry, looked up, the tested form may be a part): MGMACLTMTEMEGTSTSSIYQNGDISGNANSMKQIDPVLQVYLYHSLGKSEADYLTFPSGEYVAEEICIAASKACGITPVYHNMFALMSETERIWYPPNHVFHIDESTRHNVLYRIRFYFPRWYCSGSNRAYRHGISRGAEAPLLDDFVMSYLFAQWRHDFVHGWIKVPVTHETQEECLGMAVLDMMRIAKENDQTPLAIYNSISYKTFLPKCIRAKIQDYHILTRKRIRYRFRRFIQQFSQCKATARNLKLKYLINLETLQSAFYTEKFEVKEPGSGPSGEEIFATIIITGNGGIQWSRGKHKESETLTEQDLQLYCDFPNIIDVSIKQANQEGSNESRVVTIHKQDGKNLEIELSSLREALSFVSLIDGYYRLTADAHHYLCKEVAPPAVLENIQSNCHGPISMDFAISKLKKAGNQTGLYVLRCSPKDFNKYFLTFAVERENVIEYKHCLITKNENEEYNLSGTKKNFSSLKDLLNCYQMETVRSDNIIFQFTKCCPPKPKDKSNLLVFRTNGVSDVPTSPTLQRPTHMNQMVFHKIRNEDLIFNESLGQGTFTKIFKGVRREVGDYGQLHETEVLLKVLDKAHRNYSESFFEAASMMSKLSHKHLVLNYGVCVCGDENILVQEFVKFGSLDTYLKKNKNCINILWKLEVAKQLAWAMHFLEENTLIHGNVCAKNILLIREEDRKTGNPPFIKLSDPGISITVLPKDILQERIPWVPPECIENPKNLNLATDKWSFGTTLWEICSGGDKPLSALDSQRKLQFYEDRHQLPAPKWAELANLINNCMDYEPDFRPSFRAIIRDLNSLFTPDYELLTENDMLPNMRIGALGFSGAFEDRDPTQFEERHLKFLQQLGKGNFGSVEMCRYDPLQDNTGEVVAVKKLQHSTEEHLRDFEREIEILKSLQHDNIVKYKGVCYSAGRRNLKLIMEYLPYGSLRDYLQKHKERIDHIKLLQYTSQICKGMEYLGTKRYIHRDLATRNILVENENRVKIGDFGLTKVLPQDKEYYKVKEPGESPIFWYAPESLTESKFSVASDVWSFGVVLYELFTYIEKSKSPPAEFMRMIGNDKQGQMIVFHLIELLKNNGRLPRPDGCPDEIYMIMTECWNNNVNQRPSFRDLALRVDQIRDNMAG
Chain of Grb2 SH2 (P62993 whole entry, looked up): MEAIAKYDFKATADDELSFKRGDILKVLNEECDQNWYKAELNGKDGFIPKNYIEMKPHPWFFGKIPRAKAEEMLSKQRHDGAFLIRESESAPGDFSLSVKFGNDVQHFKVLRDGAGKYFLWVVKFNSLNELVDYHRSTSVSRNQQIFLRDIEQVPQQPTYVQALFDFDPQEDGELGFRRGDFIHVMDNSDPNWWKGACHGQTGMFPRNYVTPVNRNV

| Sequence | SH2 binding enrichment (c-Src SH2) | SH2 binding enrichment (Grb2 SH2) | SH2 binding enrichment (SHP2-C SH2) | phosphorylation enrichment (MERTK) | phosphorylation enrichment (Fer (mouse)) | phosphorylation enrichment (c-Abl (mouse)) | phosphorylation enrichment (c-Src) | phosphorylation enrichment (FGFR1) | phosphorylation enrichment (EPHB1) | phosphorylation enrichment (Fyn) | phosphorylation enrichment (Hck) | phosphorylation enrichment (EPHB2) | phosphorylation enrichment (AncSZ) | phosphorylation enrichment (Fes) | phosphorylation enrichment (FGFR3) | phosphorylation enrichment (Jak2) |
| --- | --- | --- | --- | --- | --- | --- | --- | --- | --- | --- | --- | --- | --- | --- | --- | --- |
| TVEDHYYEGGI [TKT_Y563] | 3.79 | 0.569 | 0.482 | 0.574 | 0.636 | 0.745 | 0.588 | 1.72 | 0.789 | 0.589 | 0.565 | 0.583 | 1.27 | 1.23 | 1.9 | 1.06 |
| LVFIKYLPEWT [PSEN1_Y240] | 0.902 | 1.6 | 1.43 | 0.769 | 0.744 | 1.11 | 0.4 | 0.615 | 0.898 | 0.361 | 0.555 | 0.734 | 1.78 | 1.92 | 1.27 | 1.97 |
| LGQGKYSEVFE [CSNK2A1_Y50_R47Q] | 3.54 | 0.95 | 0.829 | 0.535 | 0.455 | 0.709 | 0.574 | 0.51 | 0.508 | 0.489 | 0.477 | 0.552 | 1.05 | 1 | 0.591 | 0.857 |
| DVYVSYDCGKS [SORL1_Y139_Y141C] | 0.476 | 0.82 | 0.791 | 1.04 | 0.985 | 0.862 | 3.94 | 1.79 | 1.47 | 6.11 | 3.12 | 1.93 | 1.6 | 1.1 | 1.81 | 0.895 |
| DCAAIYGSEPE [AKR1A1_Y50_N52S] | 0.633 | 0.927 | 0.553 | 0.474 | 0.599 | 0.791 | 1.4 | 0.453 | 0.572 | 0.968 | 0.844 | 0.578 | 1.14 | 1.34 | 0.726 | 1.46 |
| ISKQGYDEAGP [ACTC1_Y364_E363G] | 1.42 | 0.916 | 0.613 | 0.666 | 0.507 | 0.793 | 0.541 | 0.539 | 0.601 | 0.452 | 0.572 | 0.532 | 0.897 | 1.01 | 0.567 | 0.931 |
| FKTPIYPFLLP [PLD2_Y578_T577I_YF] | 0.825 | 1.14 | 0.892 | 1.57 | 0.497 | 0.747 | 0.559 | 1.06 | 0.564 | 0.456 | 0.523 | 0.563 | 1.11 | 0.883 | 0.782 | 0.91 |
| EFGRRYGFSRQ [CCDC93_Y209_YF] | 0.546 | 0.686 | 0.508 | 0.499 | 0.338 | 1.42 | 0.492 | 0.43 | 0.427 | 0.449 | 0.422 | 0.416 | 0.621 | 0.634 | 0.432 | 0.607 |
| PTATSYTPNLA [GABRA1_Y375] | 0.729 | 0.699 | 0.604 | 0.357 | 0.571 | 0.505 | 0.306 | 0.459 | 0.291 | 0.643 | 0.477 | 0.314 | 0.568 | 0.521 | 0.607 | 0.349 |
| LLPNAYIYVVQ [L1CAM_Y418_A415P] | 0.432 | 0.683 | 0.707 | 1.01 | 0.539 | 1.07 | 1 | 1.34 | 1.71 | 1.05 | 0.908 | 1.32 | 2.28 | 2.47 | 1.5 | 1.69 |
| GDEEDYYEIPG [EGFR_opt_no-pY_2015] | 1.84 | 0.87 | 0.67 | 0.811 | 2.82 | 0.968 | 1.32 | 6.05 | 0.919 | 1.19 | 0.963 | 1.26 | 3.2 | 1.64 | 5.79 | 1.34 |
| FNNFGYGNDGF [HNRNPH3_Y161_YF] | 0.554 | 0.936 | 0.704 | 0.491 | 0.499 | 0.606 | 0.507 | 0.546 | 0.403 | 0.505 | 0.447 | 0.518 | 0.828 | 0.939 | 0.557 | 0.937 |
| SFCFRYRCAAW [SUMF1_Y344_R349W_YF] | 1.78 | 2.09 | 1.58 | 0.449 | 0.454 | 0.45 | 0.363 | 0.501 | 0.473 | 0.41 | 0.442 | 0.465 | 0.933 | 0.829 | 0.613 | 0.638 |
| VVCKNYAEAKD [ALB_Y343_D338V] | 0.647 | 0.852 | 0.807 | 0.457 | 0.5 | 0.785 | 0.477 | 0.482 | 0.515 | 0.512 | 0.519 | 0.581 | 0.932 | 1.1 | 0.693 | 0.875 |
| AVEDQYFRVDC [FHL1_Y207_C209R_YF] | 0.591 | 0.934 | 0.892 | 0.499 | 0.626 | 0.838 | 0.519 | 4.27 | 0.655 | 0.552 | 0.542 | 0.568 | 2.04 | 1.38 | 3.33 | 1.6 |
| FRNKPYISWPS [CDC42BPB_Y1638_S1633Y_YF] | 1.6 | 1.99 | 1.77 | 0.417 | 0.366 | 0.36 | 0.445 | 0.408 | 0.255 | 0.345 | 0.414 | 0.33 | 0.457 | 0.552 | 0.427 | 0.424 |
| HLELNYKEDEF [MME_Y502_Y497H_YF] | 0.697 | 0.905 | 0.392 | 0.589 | 0.64 | 0.749 | 0.43 | 1.08 | 0.594 | 0.557 | 0.565 | 0.504 | 0.993 | 0.967 | 1.48 | 0.903 |

| Sequence | SH2 binding enrichment (c-Src SH2) | SH2 binding enrichment (Grb2 SH2) | SH2 binding enrichment (SHP2-C SH2) | phosphorylation enrichment (MERTK) | phosphorylation enrichment (Fer (mouse)) | phosphorylation enrichment (c-Abl (mouse)) | phosphorylation enrichment (c-Src) | phosphorylation enrichment (FGFR1) | phosphorylation enrichment (EPHB1) | phosphorylation enrichment (Fyn) | phosphorylation enrichment (Hck) | phosphorylation enrichment (EPHB2) | phosphorylation enrichment (AncSZ) | phosphorylation enrichment (Fes) | phosphorylation enrichment (FGFR3) | phosphorylation enrichment (Jak2) |
| --- | --- | --- | --- | --- | --- | --- | --- | --- | --- | --- | --- | --- | --- | --- | --- | --- |
| FYRKVYHLASV [RBL1_Y796] | 0.715 | 1.15 | 1.31 | 0.39 | 0.779 | 0.416 | 0.296 | 0.555 | 0.447 | 0.444 | 0.422 | 0.566 | 0.853 | 0.745 | 0.673 | 0.667 |
| GVTLLYYGRDN [ADGRD1_Y85_Y89D] | 0.807 | 1.13 | 1.04 | 0.841 | 0.408 | 0.894 | 0.816 | 0.543 | 0.605 | 0.545 | 1.01 | 0.629 | 0.923 | 1.01 | 0.685 | 1.39 |
| PLKALYLQQRL [ATM_Y2969_P2974L] | 0.8 | 1.2 | 1.17 | 0.523 | 0.398 | 0.722 | 0.46 | 0.429 | 0.539 | 0.343 | 0.62 | 0.629 | 0.776 | 1.01 | 0.692 | 0.634 |
| KAPPTYDNVLQ [CYP3A4_Y347_T349N] | 3.58 | 4.72 | 0.674 | 1.22 | 1.85 | 0.511 | 0.785 | 0.452 | 6.04 | 0.978 | 1.68 | 3.6 | 0.606 | 0.714 | 0.482 | 0.514 |
| KTAFSYTSSST [SIM1_Y356_P352T] | 0.537 | 0.87 | 0.717 | 0.44 | 0.399 | 0.456 | 0.432 | 0.426 | 0.329 | 0.41 | 0.353 | 0.482 | 0.665 | 0.721 | 0.475 | 0.497 |
| ITNLLYHVVGW [GBA_Y412] | 0.962 | 0.998 | 0.954 | 7.56 | 2.79 | 2.9 | 4.6 | 6.87 | 5.73 | 4.07 | 5.96 | 3.59 | 1.18 | 1.32 | 5.65 | 3 |
| SAGSSYSISGI [PAX5_Y179] | 0.487 | 0.852 | 0.535 | 0.426 | 0.419 | 0.417 | 0.457 | 0.395 | 0.368 | 0.412 | 0.386 | 0.347 | 0.53 | 0.516 | 0.438 | 0.559 |
| VYSTDYYRVGG [NTRK2_Y706] | 0.719 | 0.92 | 0.687 | 11 | 1.22 | 1.49 | 4.67 | 15.3 | 8.68 | 5.13 | 4.61 | 7.13 | 2.94 | 0.902 | 11.8 | 10 |
| RYLYYYSYLLK [PTEN_Y178_V175L] | 0.966 | 0.878 | 1.57 | 5.64 | 0.676 | 2.23 | 1.76 | 3.1 | 3.51 | 0.58 | 1.65 | 1.94 | 1.93 | 1.7 | 2.91 | 3.29 |
| CPPEVYAIMRG [NTRK1_Y757] | 0.814 | 1.3 | 0.9 | 1.16 | 0.51 | 0.695 | 2.39 | 0.455 | 0.976 | 1.25 | 2 | 0.564 | 1.24 | 1.12 | 0.765 | 0.87 |
| QMEKIYTQQIQ [CCNB1IP1_Y125] | 0.478 | 0.807 | 0.398 | 1.19 | 0.651 | 1.03 | 1.55 | 0.673 | 0.747 | 0.663 | 0.628 | 0.466 | 1.12 | 1.06 | 0.5 | 1.07 |
| RSIGEYDVLRA [PRKDC_Y2936_G2941A] | 1.14 | 0.81 | 0.441 | 0.817 | 0.446 | 1.87 | 1.17 | 0.772 | 0.944 | 1.06 | 7.58 | 1.13 | 0.887 | 1.31 | 0.818 | 0.703 |
| TAVNGYAFGGG [ECHS1_Y137_A132T] | 0.399 | 0.683 | 0.093 | 0.462 | 0.62 | 0.592 | 0.561 | 0.404 | 0.417 | 0.593 | 0.419 | 0.531 | 0.558 | 0.723 | 0.922 | 0.737 |
| SVVGPYEPPEV [TP53_Y220_V218G] | 0.523 | 0.935 | 0.618 | 0.409 | 0.498 | 0.728 | 0.441 | 0.432 | 0.579 | 0.403 | 0.505 | 0.526 | 1.14 | 1.05 | 0.69 | 0.855 |
| QLPATYMNLGP [MST1R_Y1360] | 1.92 | 11 | 1.46 | 6.84 | 0.406 | 0.87 | 1.23 | 0.766 | 2.99 | 0.706 | 0.741 | 0.548 | 0.547 | 0.747 | 0.616 | 1.42 |
| FVIISYVLIIR [OR1D2_Y218] | 1.89 | 4.69 | 4.04 | 0.527 | 0.566 | 0.457 | 0.517 | 0.672 | 0.561 | 0.517 | 0.508 | 0.325 | 0.994 | 0.733 | 0.727 | 0.503 |
